Test results from IntAct's records for PubMed 10409743.

B1: Cell cycle serine/threonine-protein kinase hsk1 (Schizosaccharomyces pombe (strain ATCC 38366 / 972)), P50582 (parent)
chain: MAEAHITLSPKVTHEQQTDIDSECEITEVDDENVNENKSQEMIQDIPARDREEIENITRTFVELQENYRLIEKIGEGTFSSVYKAEDLHYGRYINDWDIQSEVLKESSFGKEKIPVNEDSRKPKYVAIKKIYATSSPARIYNELEILYLLRGSSVIAPLITALRNEDQVLVVLPYYEHTDFRQYYSTFSYRDMSIYFRCLFQAMQQTQTLGIIHRDIKPSNFLFDVRTKHGVLVDFGLAERYDGRQQSHSCRCTNSNAAELAHDFSIAQETSLGYIKNDTRPSKRANRAGTRGFRAPEVLFKCSSQSPKVDIWSAGVILLSFLTKRFPMFNSKDDVDALMEIACIFGKSEMRQCAALHGCTFETNVSTLTEKRVNFRKLILWASCGSASIYKEKLRHKPSQEERLCLDFLEKCLELDCNKRISAEEALDHDFLYLDNLAYEKKDDDTAFDNSFGETSFEKDEDLTAKHLSHILDFKEQEETDEPTSLSKRKRSIDEILPNDALQDGA
partner: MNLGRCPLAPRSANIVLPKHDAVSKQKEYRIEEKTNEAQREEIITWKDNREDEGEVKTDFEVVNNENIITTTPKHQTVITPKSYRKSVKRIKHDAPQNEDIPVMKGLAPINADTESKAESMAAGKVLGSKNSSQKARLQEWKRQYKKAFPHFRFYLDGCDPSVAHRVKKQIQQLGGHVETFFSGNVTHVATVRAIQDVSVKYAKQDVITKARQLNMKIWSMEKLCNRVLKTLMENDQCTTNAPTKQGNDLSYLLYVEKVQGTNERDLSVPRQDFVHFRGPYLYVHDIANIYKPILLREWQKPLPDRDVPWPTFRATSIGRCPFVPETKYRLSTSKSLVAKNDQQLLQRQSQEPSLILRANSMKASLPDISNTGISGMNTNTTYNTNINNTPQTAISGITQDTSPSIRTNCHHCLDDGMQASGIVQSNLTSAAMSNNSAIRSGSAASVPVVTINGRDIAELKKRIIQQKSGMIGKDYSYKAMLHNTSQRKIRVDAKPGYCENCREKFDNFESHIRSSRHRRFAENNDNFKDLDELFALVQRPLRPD

Variants of: B1
Details: with him1_schpo him1, O59836

| Variant | effect of a mutation on the interaction |
| --- | --- |
| K129A;K130S | with no effect |
